T1: mouse tissue factor pathway inhibitor (TFPI) (mouse, UniProt O54819 29-289, limits assumed)
T1 construct: bought; also called mTFPI; murine TFPI
T1 sequence (looked up): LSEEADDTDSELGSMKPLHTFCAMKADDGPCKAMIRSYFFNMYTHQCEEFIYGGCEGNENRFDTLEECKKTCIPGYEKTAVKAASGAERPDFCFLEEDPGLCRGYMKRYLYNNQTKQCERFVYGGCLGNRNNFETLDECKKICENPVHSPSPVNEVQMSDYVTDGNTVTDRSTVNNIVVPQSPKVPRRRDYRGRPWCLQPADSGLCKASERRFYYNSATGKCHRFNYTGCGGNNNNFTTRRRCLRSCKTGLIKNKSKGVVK

T2: human tissue factor pathway inhibitor (TFPI) (human, UniProt P10646 29-304, limits assumed)
T2 construct: bought; also called hTFPI; human TFPI
T2 sequence (looked up): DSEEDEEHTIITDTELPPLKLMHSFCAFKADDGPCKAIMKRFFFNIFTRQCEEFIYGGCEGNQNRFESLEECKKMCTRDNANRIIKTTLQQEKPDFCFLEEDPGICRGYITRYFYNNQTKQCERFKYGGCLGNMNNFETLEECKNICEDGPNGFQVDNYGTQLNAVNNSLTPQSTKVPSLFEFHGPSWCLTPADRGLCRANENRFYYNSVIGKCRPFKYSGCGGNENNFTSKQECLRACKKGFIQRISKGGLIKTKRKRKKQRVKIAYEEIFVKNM

B1: B9.7 (4B7 HC N32D+D62R+Y112D/LC S32R+N35I) (Fab, V domains shown)
VH: QVQLQQSGPGLVKPSQTLSLTCAISGDSVSSDSAAWSWIRQSPGRGLEWLGIIYKRSKWYNRYAVSVKSRITINPDTSKNQFSLQLNSVTPEDTAVYYCARWHSDKHWGFDDWGQGTLVTVSS
VL: DIVMTQSPLSLPVTPGEPASISCRSSQSLVFRDGITYLNWYLQKPGQSPQLLIYKGSNRASGVPDRFSGSGSGTDFTLKISRVEAEDVGVYYCQQYDSYPLTFGQGTKVEIKR
B2: B27.1 (4B7 HC N32D+D62R+Y112D/LC N35T+D97T) (Fab, V domains shown)
VH: B1 VH
VL: B1 VL with R32S, I35T, D97T
B3: gB9.7 (4B7 HC Q1E+N32D+G44S+K55Y+D62R+Y112D/LC S32R+N35I) (Fab, V domains shown)
VH: B1 VH with Q1E, G44S, K55Y
VL: B1 VL
B4: B41.2 (4B7 HC N32D+D62R+Y112D/LC S32R+D33F+N35I) (Fab, V domains shown)
VH: B1 VH
VL: B1 VL with D33F
B5: B32.5 (4B7 HC D62R+Y112D/LC D33F+N35I) (Fab, V domains shown)
VH: B1 VH with D32N
VL: B1 VL with R32S, D33F
B6: B18.5 (4B7 HC N32D+D62Q+Y112D/LC F31I+D33F+N35I) (Fab, V domains shown)
VH: B1 VH with R62Q
VL: B1 VL with F31I, R32S, D33F
B7: 2A8 HC_F104Y (Fab, V domains shown)
VH: QVQLVESGGGLVQPGGSLRLSCAASGFTFRSYGMSWVRQAPGKGLEWVSSIRGSSSSTYYADSVKGRFTISRDNSKNTLYLQMNSLRAEDTAVYYCARKYRYWYDYWGQGTLVTVSS
VL: DIELTQPPSVSVAPGQTARISCSGDNLRNYYAHWYQQKPGQAPVVVIYYDNNRPSGIPERFSGSNSGNTATLTISGTQAEDEADYYCQSWDDGVPVFGGGTKLTVLG
B8: 2A8 HC_S55R (Fab, V domains shown)
VH: B7 VH with S55R, Y104F
VL: B7 VL
notes: also called 2A8-8
B9: 2A8 HC_G33K (Fab, V domains shown)
VH: B7 VH with G33K, Y104F
VL: B7 VL
B10: 2A8 LC_D92S (Fab, V domains shown)
VH: B7 VH with Y104F
VL: B7 VL with D92S
B11: 2A8 HC_S55A (Fab, V domains shown)
VH: B7 VH with S55A, Y104F
VL: B7 VL
B12: 2A8 LC_D92T (Fab, V domains shown)
VH: B7 VH with Y104F
VL: B7 VL with D92T
B13: 2A8 LC_P54L (Fab, V domains shown)
VH: B7 VH with Y104F
VL: B7 VL with P54L
B14: 2A8 HC_I51D (Fab, V domains shown)
VH: B7 VH with I51D, Y104F
VL: B7 VL
notes: also called 2A8-12
B15: 2A8 HC_S35L (Fab, V domains shown)
VH: B7 VH with S35L, Y104F
VL: B7 VL
B16: 2A8 LC_V96G (Fab, V domains shown)
VH: B7 VH with Y104F
VL: B7 VL with V96G
B17: 2A8 LC_V96W (Fab, V domains shown)
VH: B7 VH with Y104F
VL: B7 VL with V96W
B18: 2A8 LC_V96M (Fab, V domains shown)
VH: B7 VH with Y104F
VL: B7 VL with V96M
B19: 2A8 LC_N52G (Fab, V domains shown)
VH: B7 VH with Y104F
VL: B7 VL with N52G
B20: 2A8 LC_D91R (Fab, V domains shown)
VH: B7 VH with Y104F
VL: B7 VL with D91R
B21: 2A8 HC_S54D (Fab, V domains shown)
VH: B7 VH with S54D, Y104F
VL: B7 VL
B22: 2A8 LC_A32N (Fab, V domains shown)
VH: B7 VH with Y104F
VL: B7 VL with A32N
notes: also called 2A8-11

Positions count from the first letter of the chain named. In names and notes the source's numbering stands.

The target in one assay is T1, mouse tissue factor pathway inhibitor …. Nature of the assay: SPR, TFPI immobilized. A general note: In SPR one partner is held on a chip, and binding of the other changes the refractive index at the surface.
As usually defined, the Kd is the free concentration of one partner at which half of the binding sites on the other are occupied at equilibrium, for simple one-to-one binding. Read a high Kd as lower affinity. By koff is commonly meant a measure of how fast the partners let go of each other. High values mean a short-lived complex, low ones a long-lived complex. The kon is a measure of how fast the partners come together. A low value points to slow association. The molecule B1 returned a KD fold improvement of 588 fold, a Kd of 0.0931 nM, a koff of 0.000334 s⁻¹ and an on-rate constant (kon) of 3.59e+06 M⁻¹ s⁻¹.
B2 displayed a KD fold improvement of 299 fold, a Kd of 0.183 nM, a koff of 0.000742 s⁻¹ and a kon of 4.06e+06 M⁻¹ s⁻¹.
On the same counts, the results for B3 are 275 fold, 0.199 nM, 0.000185 s⁻¹ and 929000 M⁻¹ s⁻¹.
On the same counts, the results for B4 are 1060 fold, 0.0519 nM, 0.000245 s⁻¹ and 4.73e+06 M⁻¹ s⁻¹.
On the same counts, the results for B5 are 528 fold, 0.104 nM, 0.000468 s⁻¹ and 4.52e+06 M⁻¹ s⁻¹.
On to B6, for which the KD fold improvement worked out at 139 fold, the Kd was 0.395 nM, the koff is 0.00043 s⁻¹ and the kon was found to be 1.09e+06 M⁻¹ s⁻¹.

The next assay has the same target. Kind of assay: competitive ELISA. For orientation: ELISA stands for enzyme-linked immunosorbent assay.
B1 gave a variant/HC_D62R of 30.1 ratio.
Consider B2, for which the variant/HC_D62R amounted to 9.5 ratio.
Still for that read-out and setting: for B3 the value was 25.5 ratio.
On the same count and under the same terms, the same measure for B4: 42 ratio; for B5: 20.8 ratio; for B6: 14 ratio.

In the next assay the target is T2, human tissue factor pathway inhibitor …. Kind of assay: competitive ELISA.
Turning to B1, the variant/HC_D62R worked out at 26.1 ratio.
Molecule B2 had a variant/HC_D62R of 26 ratio.
The same measure, in the same setting: for B3 the value was 22.6 ratio; for B4, 29.7 ratio.
Still for that read-out and setting: the same measure for B5: 20.3 ratio; for B6: 22.4 ratio.

For the next assay the target is unchanged. Kind of assay: SPR, TFPI immobilized.
Take B1: the KD fold improvement worked out at 1270 fold, the Kd was determined as 0.00878 nM, the koff turned out to be 2.61e-05 s⁻¹ and the kon was 2.97e+06 M⁻¹ s⁻¹.
The corresponding values for B2 are 875 fold, 0.0127 nM, 3.53e-05 s⁻¹ and 2.78e+06 M⁻¹ s⁻¹.
On the same counts, the results for B3 are 1090 fold, 0.0102 nM, 9.55e-06 s⁻¹ and 938000 M⁻¹ s⁻¹.
The molecule B4 gave a KD fold improvement of 1550 fold, a Kd of 0.00716 nM, a koff of 2.47e-05 s⁻¹ and a kon of 3.46e+06 M⁻¹ s⁻¹.
Regarding B5, the KD fold improvement was determined as 749 fold, binding was characterised by a dissociation constant (Kd) of 0.0148 nM, the koff was found to be 3.19e-05 s⁻¹ and the kon is 2.15e+06 M⁻¹ s⁻¹.
The corresponding values for B6 are 428 fold, 0.026 nM, 3.18e-05 s⁻¹ and 1.23e+06 M⁻¹ s⁻¹.

For a further assay, the target named is T1, mouse tissue factor pathway inhibitor …. Nature of the assay: competitive ELISA. This is another data set of the same source.
As for B7, the variant/wild-type came to 1.5 ratio.
The same measure, in the same setting: for B8 the value was 2.1 ratio.
For the molecule B9, the variant/wild-type was determined as 0.7 ratio.
In the case of B10, the variant/wild-type was found to be 2.6 ratio.
With B11, the variant/wild-type was found to be 1.2 ratio.
B12 showed a variant/wild-type of 1.2 ratio.
The same measure, in the same setting: for B13 the value was 2.7 ratio.
The same measure, in the same setting: for B14 the value was 1.4 ratio.
B15 yielded a variant/wild-type of 1.5 ratio.
Same read-out and setting: for B16 the value was 1.2 ratio.
Still for that read-out and setting: for B17 the value was 4.3 ratio; for B18, 1.5 ratio; for B19, 1.5 ratio.
B20 came in with a variant/wild-type of 2 ratio.
The same measure, in the same setting: for B21 the value was 1.2 ratio; for B22, 2 ratio.

A further assay concerns the target T2, human tissue factor pathway inhibitor …. Nature of the assay: competitive ELISA. This is another data set of the same source.
Molecule B7 displayed a variant/wild-type of 2 ratio.
Still for that read-out and setting: for B8 the value was 4.4 ratio; for B9, 1.8 ratio.
Same read-out and setting: the same measure for B10: 3.8 ratio; for B11: 2 ratio.
Same read-out and setting: the same measure for B12: 2.6 ratio; for B13: 5.3 ratio.
B14: the variant/wild-type worked out at 3.9 ratio.
As for B15, the variant/wild-type was found to be 1.7 ratio.
Same read-out and setting: the same measure for B16: 3.2 ratio; for B17: 4 ratio; for B18: 3.5 ratio.
Same read-out and setting: the same measure for B19: 3.4 ratio.
On the same count and under the same terms, the same measure for B20: 3.1 ratio; for B21: 1.7 ratio.
In turn, B22 had a variant/wild-type of 3.5 ratio.

Another assay has the same target. Kind of assay: SPR, TFPI immobilized. This is another data set of the same source.
For B8, the Improvement turned out to be 2.44 fold, binding was put at a Kd of 0.917 nM, the koff came out at 0.00394 s⁻¹ and the kon turned out to be 4.3e+06 M⁻¹ s⁻¹.
On the same counts, the results for B14 are 1.63 fold, 1.37 nM, 0.00495 s⁻¹ and 3.61e+06 M⁻¹ s⁻¹.
Turning to B22, the Improvement came to 1.47 fold, binding was put at a Kd of 1.52 nM, the koff is 0.0041 s⁻¹ and the kon stood at 2.7e+06 M⁻¹ s⁻¹.

These data come from USRE47150 (Bayer, dated 2018).
